# Laboratory results published in article PMC6165534, “Inhibition of Homophilic Interactions and Ligand Binding of the Receptor for Advanced Glycation End Products by Heparin and Heparin-Related Carbohydrate Structures” (Medicines, 2018).
# B1: RAGE V1-domain Ig-fusion protein (Fc fusion, human, UniProt Q15109 28-119, looked up)
# chain: ARIGEPLVLKCKGAPKKPPQRLEWKLNTGRTEAWKVLSPQGGGPWDSVARVLPNGSLFLPAVGIQDEGIFRCQAMNRNGKETKSNYRVRVYQ
# notes: RAGE, human, V1-domain, amino acids 28–119; also called V1–Ig; RAGE V1–Fc; source: Drosophila S2 cells, purified (protein A-agarose chromatography)
# B2: sRAGE–Ig fusion protein lacking C1-domain (Fc fusion, human, UniProt Q15109 28-331, looked up)
# chain: ARIGEPLVLKCKGAPKKPPQRLEWKLNTGRTEAWKVLSPQGGGPWDSVARVLPNGSLFLPAVGIQDEGIFRCQAMNRNGKETKSNYRVRVYQPVPLEEVQLVVEPEGGAVAPGGTVTLTCEVPAQPSPQIHWMKDGVPLPLPPSPVLILPEIGPQDQGTYSCVATHSSHGPQESRAVSISIIEPGEEGPTAG
# notes: RAGE, human, extracellular part without the C1-domain, amino acids 28–119 + 232–331; also called delta C1; source: Drosophila S2 cells, purified (protein A-agarose chromatography)
# B3: sRAGE–Ig fusion protein lacking C2-domain (Fc fusion, human, UniProt Q15109 28-231, looked up)
# chain: ARIGEPLVLKCKGAPKKPPQRLEWKLNTGRTEAWKVLSPQGGGPWDSVARVLPNGSLFLPAVGIQDEGIFRCQAMNRNGKETKSNYRVRVYQIPGKPEIVDSASELTAGVPNKVGTCVSEGSYPAGTLSWHLDGKPLVPNEKGVSVKEQTRRHPETGLFTLQSELMVTPARGGDPRPTFSCSFSPGLPRHRALRTAPIQPRVWE
# notes: RAGE, human, extracellular part without the C2-domain, amino acids 28–231; also called delta C2; source: Drosophila S2 cells, purified (protein A-agarose chromatography)
# Target: the molecule itself
# Test: bead aggregation assay; monomeric fluorescent protein A coated beads incubated with 10 μg/mL of the Ig-fusion proteins, no other exogenous ligands; aggregation followed by fluorescence microscopy, index Nt/N0, pictures after 60 min
row,Protein,binding result
1,B1,binds
2,B2,binds
3,B3,binds
